From patent publication US7456007B1, “β-secretase enzyme compositions and methods” (Elan Pharmaceuticals, Inc., priority 1998, dated 2008)
[ ]: non-standard residue; d: D form. Sta = CC(C)C[C@H](N)[C@@H](O)CC(=O)O

Molecular target: β-secretase (Homo sapiens, UniProt P56817)
Test: β-secretase inhibition, assay not specified
Format: biochemical

Sequence of β-secretase (P56817 46-501): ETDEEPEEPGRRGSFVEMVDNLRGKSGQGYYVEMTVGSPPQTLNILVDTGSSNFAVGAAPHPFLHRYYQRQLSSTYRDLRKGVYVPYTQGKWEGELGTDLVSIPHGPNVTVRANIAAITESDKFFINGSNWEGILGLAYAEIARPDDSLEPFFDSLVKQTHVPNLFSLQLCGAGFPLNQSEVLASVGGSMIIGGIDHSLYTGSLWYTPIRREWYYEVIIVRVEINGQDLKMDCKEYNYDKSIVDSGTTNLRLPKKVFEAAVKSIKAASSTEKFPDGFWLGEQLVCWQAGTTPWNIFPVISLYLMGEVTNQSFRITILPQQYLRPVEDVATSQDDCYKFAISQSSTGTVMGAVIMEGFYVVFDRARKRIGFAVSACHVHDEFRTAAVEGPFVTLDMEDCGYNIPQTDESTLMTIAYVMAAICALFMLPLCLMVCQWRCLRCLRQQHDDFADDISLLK

inhibitor of the enzyme (in words): reasonably potent inhibitor
Substance: NH2-KTEEISEVN[sta]VAEF-COOH (H-KTEEISEVN[Sta]VAEF-OH) [P10-P4′staD→V]
